Source: paper PMC9333989

B1: mouse CD4, wild type [mouse] / Lck (Src kinase) [mouse (endogenous in 58α−β− T cell hybridoma)] (parent)
chain 1: KTLVLGKEGESAELPCESSQKKITVFTWKFSDQRKILGQHGKGVLIRGGSPSQFDRFDSKKGAWEKGSFPLIINKLKMEDSQTYICELENRKEEVELWVFKVTFSPGTSLLQGQSLTLTLDSNSKVSNPLTECKHKKGKVVSGSKVLSMSNLRVQDSDFWNCTVTLDQKKNWFGMTLSVLGFQSTAITAYKSEGESAEFSFPLNFAEENGWGELMWKAEKDSFFQPWISFSIKNKEVSVQKSTKDLKLQLKETLPLTLKIPQVSLQFAGSGNLTLTLDKGTLHQEVNLVVMKVAQLNNTLTCEVMGPTSPKMRLTLKQENQEARVSEEQKVVQVVAPETGLWQCLLSEGDKVKMDSRIQVLSRGVNQTVFLACVLGGSFGFLGFLGLCILCCVRCRHQQRQAARMSQIKRLLSEKKTCQCPHRMQKSHNLI
chain 2: MGCVCSSNPEDDWMENIDVCENCHYPIVPLDSKISLPIRNGSEVRDPLVTYEGSLPPASPLQDNLVIALHSYEPSHDGDLGFEKGEQLRILEQSGEWWKAQSLTTGQEGFIPFNFVAKANSLEPEPWFFKNLSRKDAERQLLAPGNTHGSFLIRESESTAGSFSLSVRDFDQNQGEVVKHYKIRNLDNGGFYISPRITFPGLHDLVRHYTNASDGLCTKLSRPCQTQKPQKPWWEDEWEVPRETLKLVERLGAGQFGEVWMGYYNGHTKVAVKSLKQGSMSPDAFLAEANLMKQLQHPRLVRLYAVVTQEPIYIITEYMENGSLVDFLKTPSGIKLNVNKLLDMAAQIAEGMAFIEEQNYIHRDLRAANILVSDTLSCKIADFGLARLIEDNEYTAREGAKFPIKWTAPEAINYGTFTIKSDVWSFGILLTEIVTHGRIPYPGMTNPEVIQNLERGYRMVRPDNCPEELYHLMMLCWKERPEDRPTFDYLRSVLDDFFTATEGQYQPQP

Variants of: B1
Test: co-IP of Lck with CD4 from sucrose gradient fractions
Settings: with Lck (Src kinase) [mouse (endogenous in 58α−β− T cell hybridoma)], mean ± SEM of three independent experiments, read off a plot
[1] = DRM fractions (center graph), parent: 3.7
[2] = DSM fractions (right graph), parent: 6.9
[3] = DRM fractions (center graph), parent: 2.6
[4] = DSM fractions (right graph), parent: 8.9

Row | Variant | response [1] | response [2] | response [3] | response [4]
1 | chain 1 C392S C395S | 2.1 AUC | 8.9 AUC |  | 
2 | chain 1 G377V G380L C392S C395S C418S C420S | 0.85 AUC | 1.2 AUC |  | 
3 | chain 1 G377V G380L | 3.5 AUC | 6.4 AUC |  | 

Second part, the variant after the results:

Row | response [1] | response [2] | response [3] | response [4] | Variant
4 |  |  | 0.87 AUC | 6.3 AUC | chain 1 S406D L411A L412A S413D
5 |  |  | 1.8 AUC | 8.4 AUC | chain 1 S406D S413D
6 |  |  | 3.2 AUC |  | chain 1 S406A S413A
